Assay results published in patent publication US20210403549A1.

Target: low density lipoprotein (LDL) (UniProt P04114)
Assay: bio-layer interferometry with LDL; beside the traces: clear dose-dependent binding

Chain of low density lipoprotein (LDL) (P04114 28-4563 limits assumed): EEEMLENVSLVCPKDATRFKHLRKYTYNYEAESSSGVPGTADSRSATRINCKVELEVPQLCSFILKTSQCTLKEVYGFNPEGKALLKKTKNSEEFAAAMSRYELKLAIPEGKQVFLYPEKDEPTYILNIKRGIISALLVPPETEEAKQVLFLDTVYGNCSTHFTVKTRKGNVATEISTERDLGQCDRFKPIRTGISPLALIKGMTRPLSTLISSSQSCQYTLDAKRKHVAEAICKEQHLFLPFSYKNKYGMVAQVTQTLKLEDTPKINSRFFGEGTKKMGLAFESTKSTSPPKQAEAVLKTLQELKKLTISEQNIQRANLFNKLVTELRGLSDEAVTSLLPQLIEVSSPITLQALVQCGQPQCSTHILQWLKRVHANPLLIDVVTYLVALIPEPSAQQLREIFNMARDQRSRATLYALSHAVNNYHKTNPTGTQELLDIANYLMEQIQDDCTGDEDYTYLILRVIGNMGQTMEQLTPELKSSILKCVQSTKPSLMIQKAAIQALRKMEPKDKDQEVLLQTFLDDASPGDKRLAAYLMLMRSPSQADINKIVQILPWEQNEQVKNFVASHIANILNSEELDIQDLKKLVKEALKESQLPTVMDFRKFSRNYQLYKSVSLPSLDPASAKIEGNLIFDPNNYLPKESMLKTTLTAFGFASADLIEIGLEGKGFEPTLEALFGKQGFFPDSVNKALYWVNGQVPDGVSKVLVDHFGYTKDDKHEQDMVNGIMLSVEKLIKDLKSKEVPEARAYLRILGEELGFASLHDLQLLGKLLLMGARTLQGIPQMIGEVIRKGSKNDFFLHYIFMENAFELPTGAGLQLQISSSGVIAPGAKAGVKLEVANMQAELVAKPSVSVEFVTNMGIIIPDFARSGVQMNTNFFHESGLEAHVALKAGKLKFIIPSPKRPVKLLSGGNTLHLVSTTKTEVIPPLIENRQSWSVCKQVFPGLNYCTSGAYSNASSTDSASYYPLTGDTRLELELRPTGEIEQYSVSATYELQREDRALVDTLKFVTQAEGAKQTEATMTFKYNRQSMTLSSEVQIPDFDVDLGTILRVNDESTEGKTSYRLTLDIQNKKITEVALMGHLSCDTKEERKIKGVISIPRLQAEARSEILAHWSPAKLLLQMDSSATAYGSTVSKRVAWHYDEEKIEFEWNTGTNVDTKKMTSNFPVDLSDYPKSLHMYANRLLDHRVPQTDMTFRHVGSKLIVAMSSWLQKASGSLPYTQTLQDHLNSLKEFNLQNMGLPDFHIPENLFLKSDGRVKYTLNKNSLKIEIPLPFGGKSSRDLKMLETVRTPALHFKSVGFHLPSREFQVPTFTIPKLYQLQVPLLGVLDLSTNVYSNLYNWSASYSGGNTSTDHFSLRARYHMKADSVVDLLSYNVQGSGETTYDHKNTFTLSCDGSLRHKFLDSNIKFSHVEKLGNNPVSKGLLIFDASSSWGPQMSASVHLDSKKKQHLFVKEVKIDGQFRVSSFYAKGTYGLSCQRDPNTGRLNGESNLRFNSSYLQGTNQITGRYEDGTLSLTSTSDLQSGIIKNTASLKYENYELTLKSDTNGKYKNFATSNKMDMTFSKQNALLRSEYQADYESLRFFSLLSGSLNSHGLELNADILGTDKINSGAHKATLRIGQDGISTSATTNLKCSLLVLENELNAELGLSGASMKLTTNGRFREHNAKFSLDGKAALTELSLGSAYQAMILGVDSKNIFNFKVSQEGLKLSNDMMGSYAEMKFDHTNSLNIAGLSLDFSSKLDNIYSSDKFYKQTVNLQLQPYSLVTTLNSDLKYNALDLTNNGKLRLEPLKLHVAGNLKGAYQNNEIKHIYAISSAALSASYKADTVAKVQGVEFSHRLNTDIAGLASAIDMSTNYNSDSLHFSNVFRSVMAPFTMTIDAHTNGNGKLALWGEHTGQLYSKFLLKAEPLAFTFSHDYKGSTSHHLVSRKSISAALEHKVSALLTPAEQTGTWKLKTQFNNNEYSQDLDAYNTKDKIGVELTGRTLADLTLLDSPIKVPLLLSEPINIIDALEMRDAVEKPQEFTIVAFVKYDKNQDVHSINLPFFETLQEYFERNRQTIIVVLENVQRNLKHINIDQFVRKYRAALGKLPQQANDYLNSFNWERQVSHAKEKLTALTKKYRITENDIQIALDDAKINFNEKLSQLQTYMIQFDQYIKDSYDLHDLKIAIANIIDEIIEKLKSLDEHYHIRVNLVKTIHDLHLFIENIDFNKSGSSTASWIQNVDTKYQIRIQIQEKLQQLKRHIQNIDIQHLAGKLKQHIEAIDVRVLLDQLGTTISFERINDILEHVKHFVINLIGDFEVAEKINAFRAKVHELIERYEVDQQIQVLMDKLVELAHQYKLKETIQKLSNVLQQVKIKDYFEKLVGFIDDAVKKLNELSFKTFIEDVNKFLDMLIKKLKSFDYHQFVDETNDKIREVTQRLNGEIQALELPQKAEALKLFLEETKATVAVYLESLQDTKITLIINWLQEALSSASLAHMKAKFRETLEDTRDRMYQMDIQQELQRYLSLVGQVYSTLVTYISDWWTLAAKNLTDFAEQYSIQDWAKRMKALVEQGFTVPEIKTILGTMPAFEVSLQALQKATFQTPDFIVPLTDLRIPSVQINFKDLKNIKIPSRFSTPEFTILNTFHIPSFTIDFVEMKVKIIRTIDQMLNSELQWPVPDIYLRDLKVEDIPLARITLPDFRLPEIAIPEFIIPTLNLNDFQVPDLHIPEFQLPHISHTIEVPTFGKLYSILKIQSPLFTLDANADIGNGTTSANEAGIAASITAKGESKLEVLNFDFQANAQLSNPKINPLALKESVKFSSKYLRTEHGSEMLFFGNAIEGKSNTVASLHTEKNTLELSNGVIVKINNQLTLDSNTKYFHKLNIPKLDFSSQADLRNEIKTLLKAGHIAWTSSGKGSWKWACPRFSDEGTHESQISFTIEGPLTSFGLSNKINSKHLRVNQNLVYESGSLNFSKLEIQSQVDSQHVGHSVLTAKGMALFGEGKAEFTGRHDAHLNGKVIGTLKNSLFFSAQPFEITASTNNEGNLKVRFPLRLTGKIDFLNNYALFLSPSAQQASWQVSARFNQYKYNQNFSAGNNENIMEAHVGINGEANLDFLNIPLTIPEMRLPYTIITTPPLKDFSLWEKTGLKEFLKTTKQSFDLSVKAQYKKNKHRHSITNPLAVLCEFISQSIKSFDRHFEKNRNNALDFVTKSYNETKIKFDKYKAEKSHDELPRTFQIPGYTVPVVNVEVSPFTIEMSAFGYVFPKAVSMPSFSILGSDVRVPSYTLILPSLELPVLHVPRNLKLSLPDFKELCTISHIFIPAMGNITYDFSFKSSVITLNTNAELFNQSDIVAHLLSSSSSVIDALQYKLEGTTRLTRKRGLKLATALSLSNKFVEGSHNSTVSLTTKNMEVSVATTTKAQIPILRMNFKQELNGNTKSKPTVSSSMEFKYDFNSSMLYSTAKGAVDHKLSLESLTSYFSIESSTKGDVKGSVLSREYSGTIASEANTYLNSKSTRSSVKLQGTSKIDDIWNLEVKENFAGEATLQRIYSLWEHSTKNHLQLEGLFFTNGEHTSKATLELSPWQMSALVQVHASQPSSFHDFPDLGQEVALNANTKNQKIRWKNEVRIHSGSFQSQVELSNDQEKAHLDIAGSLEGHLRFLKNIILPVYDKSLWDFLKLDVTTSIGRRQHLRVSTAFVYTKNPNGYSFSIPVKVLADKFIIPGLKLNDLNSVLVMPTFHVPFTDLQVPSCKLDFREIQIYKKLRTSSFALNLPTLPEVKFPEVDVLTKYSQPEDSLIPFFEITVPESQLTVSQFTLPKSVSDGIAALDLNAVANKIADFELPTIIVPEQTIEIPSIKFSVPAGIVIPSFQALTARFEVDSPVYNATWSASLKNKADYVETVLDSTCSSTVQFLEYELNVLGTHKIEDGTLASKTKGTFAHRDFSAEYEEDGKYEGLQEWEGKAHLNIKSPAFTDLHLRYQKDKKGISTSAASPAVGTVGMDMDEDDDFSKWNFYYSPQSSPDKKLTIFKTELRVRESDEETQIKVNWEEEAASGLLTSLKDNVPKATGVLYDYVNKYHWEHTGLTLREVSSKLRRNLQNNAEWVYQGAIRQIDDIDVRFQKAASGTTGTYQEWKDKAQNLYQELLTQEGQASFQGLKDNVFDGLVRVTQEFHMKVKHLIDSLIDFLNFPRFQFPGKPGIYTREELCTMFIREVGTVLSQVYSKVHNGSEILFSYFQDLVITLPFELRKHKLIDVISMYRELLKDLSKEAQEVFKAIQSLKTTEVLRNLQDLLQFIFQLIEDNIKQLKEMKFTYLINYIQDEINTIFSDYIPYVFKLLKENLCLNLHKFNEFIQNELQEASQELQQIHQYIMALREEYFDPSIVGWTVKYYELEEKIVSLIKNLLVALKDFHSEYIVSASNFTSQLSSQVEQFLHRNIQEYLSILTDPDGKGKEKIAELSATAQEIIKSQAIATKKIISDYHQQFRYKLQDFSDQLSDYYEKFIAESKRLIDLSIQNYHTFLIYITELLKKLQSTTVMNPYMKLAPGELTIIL

In the case of ALK1-E75A-hsIgG-Fc (Fc fusion), the Kd is reported as 525 nM.
